Values quoted from earlier work in paper PMC8555654.

Biological target: PlexA2 (Mus musculus) (UniProt P70207)
Sequence (P70207 35-1237): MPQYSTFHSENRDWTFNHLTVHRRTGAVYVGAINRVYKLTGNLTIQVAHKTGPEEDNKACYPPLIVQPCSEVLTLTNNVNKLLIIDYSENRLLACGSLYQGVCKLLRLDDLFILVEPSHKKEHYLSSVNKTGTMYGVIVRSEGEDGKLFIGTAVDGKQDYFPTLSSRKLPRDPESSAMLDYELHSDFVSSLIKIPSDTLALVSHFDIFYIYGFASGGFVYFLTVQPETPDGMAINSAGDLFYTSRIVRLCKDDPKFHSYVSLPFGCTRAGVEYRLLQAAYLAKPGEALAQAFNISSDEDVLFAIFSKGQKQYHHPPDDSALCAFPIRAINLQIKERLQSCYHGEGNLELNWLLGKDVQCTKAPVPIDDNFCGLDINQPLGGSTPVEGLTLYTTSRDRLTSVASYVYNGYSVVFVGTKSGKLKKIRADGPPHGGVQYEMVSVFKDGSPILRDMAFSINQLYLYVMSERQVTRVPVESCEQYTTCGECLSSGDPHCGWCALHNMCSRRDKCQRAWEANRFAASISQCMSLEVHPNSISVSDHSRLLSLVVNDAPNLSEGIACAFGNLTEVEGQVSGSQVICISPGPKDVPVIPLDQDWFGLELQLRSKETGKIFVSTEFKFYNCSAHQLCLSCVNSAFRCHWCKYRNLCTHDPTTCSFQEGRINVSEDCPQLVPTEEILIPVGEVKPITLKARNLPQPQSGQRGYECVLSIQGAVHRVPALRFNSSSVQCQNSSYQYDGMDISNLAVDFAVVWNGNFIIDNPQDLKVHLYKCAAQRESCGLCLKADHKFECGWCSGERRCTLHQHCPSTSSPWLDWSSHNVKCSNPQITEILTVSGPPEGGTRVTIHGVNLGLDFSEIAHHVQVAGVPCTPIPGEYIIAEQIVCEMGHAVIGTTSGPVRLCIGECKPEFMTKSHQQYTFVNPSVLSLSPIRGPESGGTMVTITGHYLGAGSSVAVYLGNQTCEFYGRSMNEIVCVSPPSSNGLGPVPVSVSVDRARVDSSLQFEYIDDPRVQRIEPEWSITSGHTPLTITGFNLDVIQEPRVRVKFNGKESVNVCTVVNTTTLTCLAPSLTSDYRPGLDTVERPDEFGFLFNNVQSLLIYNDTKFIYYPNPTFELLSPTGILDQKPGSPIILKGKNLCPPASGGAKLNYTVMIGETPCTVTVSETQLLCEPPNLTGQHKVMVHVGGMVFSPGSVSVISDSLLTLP

For Npn1 (from UniProt P97333), the Kd is listed as 66 µM.
